Laboratory results from US20240002888A1, “RECOMBINANT MICROORGANISM COMPRISING POLYNUCLEOTIDE ENCODING TARGET PRODUCT BINDING PROTEIN FUSED TO SECRETION SIGNAL SEQUENCE, COMPOSITION COMPRISING SAME, AND METHOD FOR PRODUCING TARGET PRODUCT BY USING SAME” (KOREA RESEARCH INSTITUTE OF CHEMICAL TECHNOLOGY, priority 2020, published 2024).

B1: tSPF: truncated supernatant protein factor, amino acids 1 to 275 of SPF (SEQ ID NO: 2), without secretion signal; control expressed from pSEC-tSPF (protein)
chain: MSGRVGDLSPRQKEALAKFRENVQDVLPALPNPDDYFLLRWLRARSFDLQKSEAMLRKHVEFRKQKDIDNIISWQPPEVIQQYLSGGMCGYDLDGCPVWYDIIGPLDAKGLLFSASKQDLLRTKMRECELLLQECAHQTTKLGRKVETITIIYDCEGLGLKHLWKPAVEAYGEFLCMFEENYPETLKRLFVVKAPKLFPVAYNLIKPFLSEDTRKKIMVLGANWKEVLLKHISPDQVPVEYGGTMTDPDGNPKCKSKINYGGDIPRKYYVRDQVK
modifications: truncated SPF
B2: Suc2-tSPF: fusion protein of Suc2 signal peptide at N-terminus of tSPF (SEQ ID NO: 23), expressed in yeast from pSEC-Suc2-tSPF (protein)
chain: MLLQAFLFLLAGFAAKISAMEFSGRVGDLSPRQKEALAKFRENVQDVLPALPNPDDYFLLRWLRARSFDLQKSEAMLRKHVEFRKQKDIDNIISWQPPEVIQQYLSGGMCGYDLDGCPVWYDIIGPLDAKGLLFSASKQDLLRTKMRECELLLQECAHQTTKLGRKVETITAIYDCEGLGLKHLWKPAVEAYGEALCMFEENYPETLKRLFVVKAPKLFPVAYNLIKPFLSEDTRKKIMVLGANWKEVLLKHISPDQVPVEYGGTMTDPDGNPKCKSKINYGGDIPRKYYVRDQVK
modifications: Suc2-tSPF
B3: MFα-tSPF: fusion protein of MFα signal peptide at N-terminus of tSPF (SEQ ID NO: 25), expressed in yeast from pSEC-MFα-tSPF (protein)
chain: MRFPSIFTAVLFAASSALAAPVNTTTEDETAQIPAEAVIGYSDLEGDFDVAVLPFSNSTNNGLLFINTTIASIAAKEEGVSLEKREAEAMEFSGRVGDLSPRQKEALAKFRENVQDVLPALPNPDDYFLLRWLRARSFDLQKSEAMLRKHVEFRKQKDIDNIISWQPPEVIQQYLSGGMCGYDLDGCPVWYDIIGPLDAKGLLFSASKQDLLRTKMRECELLLQECAHQTTKLGRKVETITAIYDCEGLGLKHLWKPAVEAYGEALCMFEENYPETLKRLFVVKAPKLFPVAYNLIKPFLSEDTRKKIMVLGANWKEVLLKHISPDQVPVEYGGTMTDPDGNPKCKSKINYGGDIPRKYYVRDQVK
modifications: MF-tSPF
B4: Pho5-tSPF: fusion protein of Pho5 signal peptide at N-terminus of tSPF (SEQ ID NO: 24), expressed in yeast from pSEC-Pho5-tSPF (protein)
chain: MFKSVVYSILAASLANAMEFSGRVGDLSPRQKEALAKFRENVQDVLPALPNPDDYFLLRWLRARSFDLQKSEAMLRKHVEFRKQKDIDNIISWQPPEVIQQYLSGGMCGYDLDGCPVWYDIIGPLDAKGLLFSASKQDLLRTKMRECELLLQECAHQTTKLGRKVETITAIYDCEGLGLKHLWKPAVEAYGEALCMFEENYPETLKRLFVVKAPKLFPVAYNLIKPFLSEDTRKKIMVLGANWKEVLLKHISPDQVPVEYGGTMTDPDGNPKCKSKINYGGDIPRKYYVRDQVK
modifications: Pho5-SPF

Assays:
Assay type in all cases: cell-based, Saccharomyces cerevisiae
CEN.PK2-1D yeast cells = test: Beta-carotene production and secretion by CEN.PK2-1D yeast cells co-transformed with p415-BC and pSEC-tSPF or pSEC-Suc2-tSPF; conditions: for Intracellular (mg/L) / Intracellular (mg/g): beta-carotene in cells; for Extracellular: beta-carotene in dodecane layer
Excerpt: Through the same process as described in Section (1.2) of Example 1, the S. cerevisiae wild strain CEN.PK2-1D was co-transformed with the p415-BC vector manufactured in Section (1.2) and either pSEC-tSPF or pSEC-Suc2-tSPF, to manufacture yeast cells transformed with a vector expressing tSPF fused to a signal peptide.
CEN.PK2-1D yeast cells, which were co-transformed with the p415-BC vector obtained in Section (2.2) and either pSEC-tSPF or pSEC-Suc2-tSPF and were able to overproduce beta-carotene, were cultured for 144 hours under the same conditions as described in Section (1.3) of Example 1. Then, the amount of beta-carotene in the cultured cells and outside the cells was measured. The amount of beta-carotene was measured in the same method as the methods for cell lysis and dodecane layer separation used for the measurement of the squalene concentration. Table 2 and FIG. 6 show the amount of beta-carotene produced by culturing the CEN.PK2-1D yeast cells co-transformed with the p415-BC vector and either pSEC-tSPF or pSEC-Suc2-tSPF.

SQ strain [1] = test: Squalene production and secretion by SQ strains transformed with tSPF fused to a secretion signal sequence (HPLC of cell lysate and dodecane layer); conditions: for Intracellular (mg/L) / Intracellular (mg/g): squalene in cells; for Extracellular: squalene in dodecane layer
Procedure: The SQ strains transformed with the pSEC-Suc2-tSPF, pSEC-Pho5-tSPF, and pSEC-MFα-tSPF expression vectors were cultured in flask ([…]) containing 50 mL of minimal medium (e.g., YSC medium; 0.67% (w/v) yeast nitrogen base without amino acids (BD Difco, USA), 0.19% (w/v) yeast synthetic drop-out medium supplements without uracil (Sigma-Aldrich, USA)) while stirring at 250 rpm at 30° C.
After culturing for 72 hours and 144 hours, the culture was centrifuged at 4,000 rpm to be separated into cells, a culture supernatant, and a dodecane layer. Then, the concentration of squalene in the separated cells and dodecane layer was measured. To measure the squalene concentration in the cells, the cells were resuspended in 600 μL of a mixed solution containing methanol and acetone at 1:1, transferred to a tube containing lysing matrix C (glass bead, MP Biomedicals, USA), and then underwent cell lysis by using a FastPrep-24 5G homogenizer (MP Biomedicals, USA). By centrifugation at 13,000 rpm, the lysed cells and intracellular metabolites including squalene dissolved from the lysed cells were separated.
Next, the squalene concentration in the cell lysate was measured. To measure the squalene concentration in the cell lysate, the concentration was measured by using an Agilent HPLC system after filtering the cell lysate through a 0.2 μm syringe filter.
In addition, the dodecane layer separated by centrifugation was also filtered in the same way, and then the squalene concentration was measured by using an HPLC system. […] FIGS. 2A and 2B show the squalene concentrations outside the cells or in the cells, wherein the cells were produced by yeast cells including the polynucleotide encoding tSPF fused to the secretion signal sequence.

SQ strain [2] = test: Western blot analysis of cell lysates and culture supernatant of transformed SQ strains (anti-His tag); conditions: medium without dodecane layer
Procedure: FIG. 4 is a diagram showing the results of western blot analysis of the cell lysates and the culture supernatant obtained after culturing the SQ strains that were each transformed with the Suc2-tSPF, Pho5-tSPF and MFα-tSPF fusion protein genes. To confirm the extracellular secretion of the tSPF fusion protein, yeast cells were cultured in a flask ([…]) containing 50 mL minimal medium (e.g., YSC medium; 0.67% (w/v) yeast nitrogen base without amino acids (BD Difco, USA), 0.19% (w/v) yeast synthetic drop-out medium supplements without uracil (Sigma-Aldrich, USA)) supplemented with 2% (w/v) glucose while stirring at 30° C. […] To extract intracellular proteins from the cultured yeast cells in an amount corresponding to an OD600 value of 100, the cells were resuspended 1 mL of cell lysis buffer (1 mL RIPA buffer, Thermo Scientific, MA, USA) containing protease inhibitor (1× protease inhibitor cocktail, Roche Diagnostics, Mannheim, Germany). The suspension was homogenized by using a sonicator, for 6 minutes at 20% amplitude and 3 second intervals. The extracellular proteins in the supernatant of the culture medium were added to a solution in which trichloroacetic acid solution was added to 50 mL of the supernatant to account for 25%, and incubated for 30 minutes to precipitate proteins, followed by centrifugation at 4° C. for 40 minutes. The precipitated proteins were washed three times with 1 ml of cold acetone, and then resuspended in 50 μl of sterile water. The resuspended proteins were further concentrated by using 30 kDa am icon ultra centrifugal filters.
The protein samples thus prepared, i.e. the cell lysates, were mixed with 5×SDS sample buffer and separated by 10% SDS-PAGE. The proteins separated on the SDS-PAGE gel were transferred to a PVDF membrane, and blocked by incubation for one day in TBST containing 4% skim milk. The PVDF membrane was reacted with a solution containing primary antibodies at room temperature for 1 hour, and then washed with a TBST solution three times. As the primary antibody, an anti-actin antibody or an anti-His tag antibody was used. The fusion protein included a 6×His tag sequence at the C-terminus. The washed PVDF membrane was reacted again in a solution containing peroxidase-conjugated anti-IgG antibodies at room temperature for 1 hour. The PVDF membrane in which the antibody-conjugated proteins were present was visualized by using the ChemiDoc imaging system.

| Molecule | Intracellular (mg/L) (CEN.PK2-1D yeast cells; 144 hours) | Intracellular (mg/g) (CEN.PK2-1D yeast cells; 144 hours) | Extracellular (CEN.PK2-1D yeast cells; 144 hours) [mg/L] | Intracellular (mg/L) (SQ strain [1]; 72 hours) | Intracellular (mg/g) (SQ strain [1]; 72 hours) | Intracellular (mg/L) (SQ strain [1]; 144 hours) | Intracellular (mg/g) (SQ strain [1]; 144 hours) | Extracellular (SQ strain [1]; 72 hours) [mg/L] | Extracellular (SQ strain [1]; 144 hours) [mg/L] | western blot band in cell lysate (SQ strain [2]) | western blot band in culture supernatant (SQ strain [2]; culture supernatant) | amount of extracellular beta-carotene or ratio of extracellular secretion compared to control cells (CEN.PK2-1D yeast cells) | extracellular secretion of beta-carotene, increase compared to the control groups containing the empty vector (CEN.PK2-1D yeast cells; 144 hours) | amount of extracellular squalene or extracellular squalene secretion ratio compared to the control cells (SQ strain [1]) |
| --- | --- | --- | --- | --- | --- | --- | --- | --- | --- | --- | --- | --- | --- | --- |
| B1 | 7.04 | 0.69 | 0.23 | 401.51 | 55.05 | 485.04 | 59.43 | 3.67 | 13.82 | apparent band | did not appear |  |  |  |
| B2 | 7.65 | 0.82 | 1.4 | 476.9 | 89.61 | 557.03 | 97.93 | 166.62 | 226.51 | hardly appeared |  | significantly increased | about 23 fold | significant increase |
| B3 |  |  |  | 210.52 | 44.88 | 551.64 | 78.42 | 4.21 | 43.25 |  |  |  |  | significant increase |
| B4 |  |  |  | 252.17 | 51.68 | 426.85 | 72.39 | 64.55 | 190.09 | hardly appeared |  |  |  | significant increase |
